From patent EP1508806A1
One block for each substance: values may come before it.

Legend:
[1] = molecular target: regulatory p85α subunit of bovine PI 3-kinase (recombinant, GST part removed with thrombin) (bovine) (UniProt P23727); assay: SPR competition: soluble peptide against the same peptide immobilised, 100 nM p85α
[2] = molecular target: GST fusion protein containing amino acids 449-664 of rat IRS-1 (rIRS-1 449-664), not phosphorylated (rat) (UniProt P35570); assay: cell-based or functional assay
[3] = molecular target: rIRS-1 449-664 GST fusion protein, phosphorylated in vitro by PKC from rat brain (rat) (UniProt P35570); assay: cell-based or functional assay
[4] = molecular target: rIRS-1 449-664 GST fusion protein, phosphorylated in vitro by PKC-ζ (rat) (UniProt P35570); assay: cell-based or functional assay
[5] = molecular target: rIRS-1 449-664 S570A GST fusion protein, pretreated with PKC-ζ (rat) (UniProt P35570); assay: cell-based or functional assay
[6] = molecular target: rIRS-1 449-664 S612A GST fusion protein, pretreated with PKC-ζ (rat) (UniProt P35570); assay: cell-based or functional assay
[7] = molecular target: rIRS-1 449-664 S570A GST fusion protein, pretreated with PKC-ζ and then tyrosine phosphorylated by insulin receptor (rat) (UniProt P35570); assay: GST pull-down, anti-p85α immunoblot quantified; relative to the insulin-stimulated control value set as 100%
[8] = molecular target: rIRS-1 449-664 S612A GST fusion protein, pretreated with PKC-ζ and then tyrosine phosphorylated by insulin receptor (rat) (UniProt P35570); assay: as above
[9] = molecular target: rIRS-1 449-664 GST fusion protein, pretreated with PKC-ζ and then tyrosine phosphorylated by insulin receptor (rat) (UniProt P35570); assay: GST pull-down, anti-p85α immunoblot quantified; against the insulin-stimulated value without PKC-ζ set as 100%
[10] = molecular target: rIRS-1 449-664 GST fusion protein, pretreated with PKC from rat brain and then tyrosine phosphorylated by insulin receptor (rat) (UniProt P35570); assay: GST pull-down, anti-p85α immunoblot quantified; against the insulin-stimulated value without PKC-rb set as 100%

Chain of UniProt P23727 (P23727 whole entry, the tested form may be a part): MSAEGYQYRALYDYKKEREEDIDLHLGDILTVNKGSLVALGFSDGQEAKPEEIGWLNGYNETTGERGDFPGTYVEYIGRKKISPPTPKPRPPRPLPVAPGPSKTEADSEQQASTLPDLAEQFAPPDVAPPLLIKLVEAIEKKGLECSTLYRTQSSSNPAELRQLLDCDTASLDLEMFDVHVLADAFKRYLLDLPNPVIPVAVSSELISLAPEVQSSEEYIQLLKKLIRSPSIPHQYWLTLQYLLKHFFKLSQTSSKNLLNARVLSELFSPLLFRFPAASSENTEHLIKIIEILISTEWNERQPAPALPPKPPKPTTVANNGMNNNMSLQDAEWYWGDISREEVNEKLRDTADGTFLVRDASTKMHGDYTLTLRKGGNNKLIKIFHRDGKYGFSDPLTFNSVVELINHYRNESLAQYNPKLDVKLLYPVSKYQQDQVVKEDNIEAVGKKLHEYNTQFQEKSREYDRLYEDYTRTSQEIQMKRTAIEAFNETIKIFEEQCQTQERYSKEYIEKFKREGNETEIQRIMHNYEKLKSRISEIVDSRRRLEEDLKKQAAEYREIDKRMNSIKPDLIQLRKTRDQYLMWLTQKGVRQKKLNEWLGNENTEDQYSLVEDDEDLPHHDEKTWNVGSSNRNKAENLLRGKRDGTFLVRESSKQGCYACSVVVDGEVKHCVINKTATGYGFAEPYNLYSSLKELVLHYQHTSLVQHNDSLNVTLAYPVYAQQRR

peptide concentration for complete inhibition [1]: 10 µM
Substance: IRS-1 peptide pY608, DDGpYMPMSPGV (amino acids 605 to 615 of rat IRS-1, phosphotyrosine 608)

peptide concentration for complete inhibition [1]: 10 µM
Substance: IRS-1 peptide pY608-pS612, DDGpYMPMpSPGV (amino acids 605 to 615 of rat IRS-1, phosphotyrosine 608 and phosphoserine 612)

insulin-stimulated tyrosine phosphorylation of rIRS-1^449-664 (anti-phosphotyrosine immunoblot) [2]: 8.8 fold
reduction of insulin-stimulated Tyr-phosphorylation of rIRS-1^449-664 after PKC-rb pretreatment [3]: 27%
inhibition of tyrosine phosphorylation of rIRS-1^449-664 after PKC-ζ pretreatment [4]: 46%
reduction of tyrosine phosphorylation by IR after PKC-ζ pretreatment [4]: 30 to 40%
reduction of tyrosine phosphorylation by IR after PKC-ζ pretreatment [5]: 30 to 40%
reduction of tyrosine phosphorylation by IR after PKC-ζ pretreatment [6]: 30 to 40%
Substance: insulin receptor, WGA-purified from rat liver, insulin-stimulated and autophosphorylated (from UniProt P15127 27-1383)

p85α binding, percent of control [7]: 43%
p85α binding, percent of control [8]: 28%
percent inhibition of p85α binding [9]: 81%
percent inhibition of the association of p85α [10]: 49%
Substance: regulatory p85α subunit of bovine PI 3-kinase (recombinant, GST part removed with thrombin) (from UniProt P23727 1-724)
